Consider 16 sequences from the DeepSol protein solubility set.

A short description of this series: soluble on expression in E. coli; label from the status in PepcDB or PDB records.
On to “APAAVDWRARGAVTAVKDQGQCGSCWAFSAIGNVECQWFLAGHPLTNLSEQMLVSCDKTDSGCSGGLMNNAFEWIVQENNGAVYTEDSYPYASGEGISPPCTTSGHTVGATITGHVELPQDEAQIAAWLAVNGPVAVAVDASSWMTYTGGVMTSCVSEALDHGVLLVGYNDSAAVPYWIIKNSWTTQWGEEGYIRIAKGSNQCLVKEEASSAVVG”, for which the “soluble on expression in E. coli” value is on record as “soluble”.

As to “MGSDKIHHHHHHMKQKTIHIENLSIGYLGKTDVKVVADRINAGINCGELTCLLGANGVGKSTLLRTLSAFQPKLGGKIEIVGKEIDAYTDKELSTVISVVLTEKCDIRNMTVHELVGLGRSPYTDFWGTLRGEDKEVVERSIALVKIQNLAHRMVHTLSDGERQKVMIAKALAQETPVIFLDEPTAFLDFPSKVEMMQLLHRLSRQTNKTIFLSTHDLELALQIADKIWLMDKMNGVTIGTPEDLSLSGKLSSFFARKGIVFDLETGLFRVDNEYTSQIRLVGHGQKYAMVRKALQRNGILANRTVESDTYIETGDLKDGNGFILHPQEGEAVTLNSIEELLERLQAGSAERAV”, the “soluble on expression in E. coli” value was “not soluble”.

For “MKNSNFPAEVKDLTKRIRTVLMATAQMKEHEKDPEMLVDLQYSLANSYASTPELRRTWLESMAKIHARNGDLSEAAMCYIHIAALIAEYLKRKGYWKVEKICTASLLSEDTHPCDSNSLLTTPSGGSMFSMGWPAFLSITPNIKEEGAMKEDSGMQDTPYNENILVEQLYMCVEFLWKSERYELIADVNKPIIAVFEKQRDFKKLSDLYYDIHRSYLKVAEVVNSEKRLFGRYYRVAFYGQGFFEEEEGKEYIYKEPKLTGLSEISQRLLKLYADKFGADNVKIIQDSNKVNPKDLDPKYAYIQVTYVTPFFEEKEIEDRKTDFEMHHNINRFVFETPFTLSGKKHGGVAEQCKRRTILTTSHLFPYVKKRIQVISQSSTELNPIEVAIDEMSKKVSELNQLCTMEEVDMIRLQLKLQGSVSVKVNAGPMAYARAFLEETNAKKYPDNQVKLLKEIFRQFADACGQALDVNERLIKEDQLEYQEELRSHYKDMLSELSTVMNEQITGRDDLSKRGVDQTCTRVISKATPALPTVSISSSAEV”, the “soluble on expression in E. coli” value is “not soluble”.

Turning to “MNSIHGHYHIQLSNYSAGENLQSATLTEGVIGAHRVKVETALSHSNLQKKLSATIKHNQSGRSMLDRKLTSDGKANQRSSFTFSMIMYRMIHFVLSTRVPAVRESVANYGGNINFKFAQTKGAFLHKIIKHSDTASGVCEALCAHWIRSHAQGQSLFDQLYVGGRKGKFQIDTLYSIKQLQIDGCKADVDQDEVTLDWFKKNGISERMIERHCLLRPVDVTGTTESEGLDQLLNAILDTHGIGYGYKKIHLSGQMSAHAIAAYVNEKSGVTFFDPNFGEFHFSDKEKFRKWFTNSFWGNSMYHYPLGVGQRFRVLTFDSKEV”, the “soluble on expression in E. coli” value is listed as “not soluble”.

In the case of “MADSNSTVEQYRSLKRKMIEKKDLMRNNRTALRACILFNCLLGTSIRDAYNQFCRAVGSDVMEYREYEFWFYQFKRGDADFSDAISWNPNTIKLDELPIEVINTISSFSMPMERLTLRKVSKNLRTLIDSEPFCFQRIIVRIGHRTSYLQLDGYPGIEYIHCGADCNVLYGKRDKYVKNKNHVEYALTEAIQLMRNSNNHSKEFHVRAERSNDQELSMVLRKFFDSVEIELYAKKIVVSGFSFADTSSVLCHFKAGFLEEIQVLPGSGGPWTNVLVEMEQYKKAKVLKICTEFPVLLDIEDLLHFRRFEIAIKSDFTERMARKIRDVLTNSEHFEYAHIITQDLHHRTVIKFFNRNAENVFWNYGSMNYNNKKRLFHIEYNHRQFVIKKLNM”, the “soluble on expression in E. coli” value is reported as “not soluble”.

As for “MSLNLSRIGLDLAKQVFQVHGVDRHEHVVCRRQLKRAQVRDFFRQLPPCLVAMEACGSAHYWARELRELGHTVRLIAPQFVKPYVKGDKHDAHDAEAICEAASRPSMRYVPVKSAEQQAVQSMHRVRSRLVRARTALCNEVRGLLGEFGLIATRRGRAATMALLETVMATEPAPLPAPMGELLRELKDELQTLEARIARLERQIQAHVRGDARIQRLLAVEGIGPISASAVAASAGDARQFRTGRQFAAWLGLVPRQHSTGGQQRLGNISKRGDTYLRTLLIHGARAVVRCCANKTDARSRWLQGLLQRRPANVVAVALANKNARILWALLSRETCYRPGEGHHHHHH”, the “soluble on expression in E. coli” value is “not soluble”.

Turning to “MSLATIKDVAQRAGLSISTVSRYLNHHPYISEDKKIKIQQAMDELDYVPNLVAMQLRSNKSYTIGIIVPRITNPYFAYLIDAIDKKIKGTPYHTLIMQTYNDKEEELRLLNMFKQRQIAGVIMGALENDIEVLETYTKYGPIILSADQSMQSDKVKIIHTTQRQTTYDAIQYLINKGYRNIAYCTDNNYYDHCFNKPRNVGFRVAMKDNGLDIRNEWIFNNVHTIEDGEQIGKILLRQEQLPDAIFTGSDEVALGLMHFMTAHQIDIPNQIAIMGYDNQPISSLLKIPLSTVNQPVNDIGMQLINYLLALLEETEFEINDNVLKLNIVERQSTEGHHHHHH”, the “soluble on expression in E. coli” value is reported as “soluble”.

In the case of “MPGIDKLPIEETLEDSPQTRSLLGVFEEDATAISNYMNQLYQAMHRIYDAQNELSAATHLTSKLLKEYEKQRFPLGGDDEVMSSTLQQFSKVIDELSSCHAVLSTQLADAMMFPITQFKERDLKEILTLKEVFQIASNDHDAAINRYSRLSKKRENDKVKYEVTEDVYTSRKKQHQTMMHYFCALNTLQYKKKIALLEPLLGYMQAQISFFKMGSENLNEQLEEFLANIGTSVQNVRREMDSDIETMQQTIEDLEVASDPLYVPDPDPTKFPVNRNLTRKAGYLNARNKTGLVSSTWDRQFYFTQGGNLMSQARGDVAGGLAMDIDNCSVMAVDCEDRRYCFQITSFDGKKSSILQAESKKDHEEWICTINNISKQIYLSENPEETAARVNQSALEAVTPSPSFQQRHESLRPAAGQSRPPTARTSSSGSLGSESTNLAALSLDSLVAPDTPIQFDIISPVCEDQPGQAKAFGQGGRRTNPFGESGGSTKSETEDSILHQLFIVRFLGSMEVKSDDHPDVVYETMRQILAARAIHNIFRMTESHLLVTCDCLKLIDPQTQVTRLTFPLPCVVLYATHQENKRLFGFVLRTSSGRSESNLSSVCYIFESNNEGEKICDSVGLAKQIALHAELDRRASEKQKEIERVKEKQQKELNKQKQIEKDLEEQSRLIAASSRPNQASSEGQFVVLSSSQSEESDLGEGGKKRESEA”, the “soluble on expression in E. coli” value is given as “soluble”.

“MGSDKIHHHHHHVSSLSFNFAPDFRPLAARMRPRSIAEYIGQAHLLGEGQPLRKALEAGRAHSMMLWGPPGTGKTTLAELIAQYSNAHVERISAVTSGVKEIRAAIEQAKAIAESRGQRTLLFVDEVHRFNKSQQDAFLPFIEDGTVIFIGATTENPSFEINNALLSRARVYLIKRLSNNEIAHIVTQALADTERGLGLRQLEMPESVLIKLAQLCDGDARKALNLLELMSDMVSDNDTFTLEMLVQVAGHQVAGFDKNGDQFYDLISAVHKSIRGSAPDAALYWYCRILEGGGDPLYVARRLLAIASEDVGNADPAAMTIALNAWDCFHRVGPAEGERAIAQAIVYLASAPKSNAVYTAFKAARALARETGQESVPHHLRNAPTQLMKEIGMGEGYRYAHDEPNAYASGENYFPESLKTAQFYFPTERGFEKRIKDKLIQLTQLDQVSENKRYD”: the “soluble on expression in E. coli” value was “not soluble”.

Regarding “MSVITPTSSIAANDHRAQFLGLLDTSLSQNSLIKLVLAKYVGSEADLQRIIIKPLTVKEQPCLSFVYRYKTRDITKNFPLAEAVAVIASLIPESFKNAHLLSLSDEVQLEYSKKGKTTLFKSKAQQEREAPSAGHDREKKRYLELSRPFLADLGVTNRQHELIPAMSRKWKQINKFIEVFSHALSSSSLKLDQPIKVADFGSGKGYLTFAIHDYLCNTLQAQGQVTGVELREDMVTLCNNAAAGLEHPGLTFQHGDVRSVAPRALDVMIALHACDIATDYAIHMGIRSGASIIMCSPCCHKQIRLQIQSPSLLKPMLQYGLHMGQQAEMVTDSLRALLLDACGYETKVFEFISLEHTNKNKMILAVKRAEPANPAQLLVRIQELKAFYGISEQCLETLLQADGFLG”, the “soluble on expression in E. coli” value is recorded as “not soluble”.

Take “MIERYSREEMSNIWTDQNRYEAWLEVEILACEAWSELGHIPKADVQKIRQNAKVNVERAQEIEQETRHDVVAFTRQVSETLGEERKWVHYGLTSTDVVDTALSFVIKQANDIIEKDLERFIDVLAEKAKNYKYTLMMGRTHGVHAEPTTFGVKMALWYTEMQRNLQRFKQVREEIEVGKMSGAVGTFANIPPEIESYVCKHLGIGTAPVSTQTLQRDRHAYYIATLALIATSLEKFAVEIRNLQKTETREVEEAFAKGQKGSSAMPHKRNPIGSENITGISRVIRGYITTAYENVPLWHERDISHSSAERIMLPDVTIALDYALNRFTNIVDRLTVFEDNMRNNIDKTFGLIFSQRVLLALINKGMVREEAYDKVQPKAMISWETKTPFRELIEQDESITSVLTKEELDECFDPKHHLNQVDTIFERAGLA”: the “soluble on expression in E. coli” value is on record as “soluble”.

For the sequence “MSLKRAVISGGAGGLGRALSDALQTRGWHVTLLDRDISAIEPSETQRVIQCDLTDPGQLAAACALAIGPQGVDLAVYNAGITQIGLFADSDEASHRRVFEINYFAAVNMARAMLGPVRQARGTHLAISSVAGFAPLYSRTSYAASKHALEGFFKSLRSEERAHGVAVQIAAPSFVATNLGNAQAQPDGIARPGSATDGMDYMTPEAAAATILRGLDRGRDMIPVGRVARLAWWINRLSPGLYQRLMESKIGREGHHHHHH”, the “soluble on expression in E. coli” value was “soluble”.

As to “MSLTKKELPLDGLIPYCEQCGDFRFPVFSVAVSMIVMNEGGDQVLLIKQYWKDSYILVAGYVNKGENAEDSCRRELMEELHLTAKSLHFNRSQYFAPSNTLMLNYTVTVDQAEKVSPNEEIDAWNWLSIDEARRQIRPNSLARTFLLEYLNKCKLHREGHHHHHH”, the “soluble on expression in E. coli” value is “soluble”.

On to “MPIGNLGHNPNVNNSIPPAPPLPSQTDGAGGRGQLINSTGPLGSRALFTPVRNSMADSGDNRASDVPGLPVNPMRLAASEITLNDGFEVLHDHGPLDTLNRQIGSSVFRVETQEDGKHIAVGQRNGVETSVVLSDQEYARLQSIDPEGKDKFVFTGGRGGAGHAMVTVASDITEARQRILELLEPKGTGESKGAGESKGVGELRESNSGAENTTETQTSTSTSSLRSDPKLWLALGTVATGLIGLAATGIVQALALTPEPDSPTTTDPDAAASATETATRDQLTKEAFQNPDNQKVNIDELGNAIPSGVLKDDVVANIEEQAKAAGEEAKQQAIENNAQAQKKYDEQQAKRQEELKVSSGAGYGLSGALILGGGIGVAVTAALHRKNQPVEQTTTTTTTTTTTSARTVENKPANNTPAQGNVDTPGSEDTMESRRSSMASTSSTFFDTSSIGTVQNPYADVKTSLHDSQVPTSNSNTSVQNMGNTDSVVYSTIQHPPRDTTDNGARLLGNPSAGIQSTYARLALSGGLRHDMGGLTGGSNSAVNTSNNPPAPGSHRFV”, for which the “soluble on expression in E. coli” value is recorded as “not soluble”.

For “MGSDKIHHHHHHMNVLLSRKDTIRFLILSELMVNPECNQRDIAKKLGLTPQAISEHFKEMVSEGFINVVHKGYYEVTRKGEEWMSRNLIDLHLFSEELLKKIYSKTVVAIAKGRIAENDSVRYWFGDGYIFAERSAKGNGVALTSAEDGEDVLIKPTGSFEPPEKGEIIIVKVPGVAEGGSRKVDLDSFRELVKSRPTSIVVAIGIEALVTCRKIRVEPIFFGAKEVCIEAAHHGSGVIVACTESMLNDLLRSLIDEGLEFEIKEFVKAT”, the “soluble on expression in E. coli” value is on record as “not soluble”.

For the sequence “RGKGKDIVMNPLSFGEFVKVARPDIYSKLPRIKRITKVKECSKLRPWREELYDLFILYLKSGGFPRAVKDILEGESIAELHEPTWNSIQKFYGPL”, the “soluble on expression in E. coli” value was “not soluble”.
